Numbering of substitutions follows the chain as printed. Starred links: 1 amine or outer side, 2 acyl side, 3 side chain; linkers in the order of their positions; H or OH if unused. Non-standard residues stand in square brackets, D forms with d. Groups on a side chain read outwards from the residue. No end group written: not given here. *: point of attachment. C20 diacid = O=C(O)CCCCCCCCCCCCCCCCCCC(=O)*; γGlu = O=C(O)[C@H](CCC(=O)[*:2])N[*:1]; 4Pal = N[C@@H](Cc1ccncc1)C(=O)O; αMeL = CC(C)C[C@](C)(N)C(=O)O; AEEA = NCCOCCOCC(=O)O; Aib = CC(C)(N)C(=O)O
B1: Example 71 (peptide)
peptide: Y[Aib]EGTFISDYSI[αMeL]LDKK([AEEA-AEEA-γGlu-C20 diacid])HQ[Aib]DFVEWLLETGPSSGAPPPS-NH2
modifications: N-terminus assumed
SMILES: CC[C@H](C)[C@H](NC(=O)[C@H](Cc1ccccc1)NC(=O)[C@@H](NC(=O)CNC(=O)[C@H](CCC(=O)O)NC(=O)C(C)(C)NC(=O)[C@@H](N)Cc1ccc(O)cc1)[C@@H](C)O)C(=O)N[C@@H](CO)C(=O)N[C@@H](CC(=O)O)C(=O)N[C@@H](Cc1ccc(O)cc1)C(=O)N[C@@H](CO)C(=O)N[C@H](C(=O)N[C@@](C)(CC(C)C)C(=O)N[C@@H](CC(C)C)C(=O)N[C@@H](CC(=O)O)C(=O)N[C@@H](CCCCN)C(=O)N[C@@H](CCCCNC(=O)COCCOCCNC(=O)COCCOCCNC(=O)CC[C@H](NC(=O)CCCCCCCCCCCCCCCCCCC(=O)O)C(=O)O)C(=O)N[C@@H](Cc1c[nH]cn1)C(=O)N[C@@H](CCC(N)=O)C(=O)NC(C)(C)C(=O)N[C@@H](CC(=O)O)C(=O)N[C@@H](Cc1ccccc1)C(=O)N[C@H](C(=O)N[C@@H](CCC(=O)O)C(=O)N[C@@H](Cc1c[nH]c2ccccc12)C(=O)N[C@@H](CC(C)C)C(=O)N[C@@H](CC(C)C)C(=O)N[C@@H](CCC(=O)O)C(=O)N[C@H](C(=O)NCC(=O)N1CCC[C@H]1C(=O)N[C@@H](CO)C(=O)N[C@@H](CO)C(=O)NCC(=O)N[C@@H](C)C(=O)N1CCC[C@H]1C(=O)N1CCC[C@H]1C(=O)N1CCC[C@H]1C(=O)N[C@@H](CO)C(N)=O)[C@@H](C)O)C(C)C)[C@@H](C)CC
B2: Example 78 (peptide)
peptide: Y[Aib]EGTFISDYSI[αMeL]LDKK([AEEA-AEEA-γGlu-C20 diacid])HQ[Aib]DFVE[4Pal]LLAAGPSSGAPPPS-NH2
modifications: N-terminus assumed
SMILES: CC[C@H](C)[C@H](NC(=O)[C@H](Cc1ccccc1)NC(=O)[C@@H](NC(=O)CNC(=O)[C@H](CCC(=O)O)NC(=O)C(C)(C)NC(=O)[C@@H](N)Cc1ccc(O)cc1)[C@@H](C)O)C(=O)N[C@@H](CO)C(=O)N[C@@H](CC(=O)O)C(=O)N[C@@H](Cc1ccc(O)cc1)C(=O)N[C@@H](CO)C(=O)N[C@H](C(=O)N[C@@](C)(CC(C)C)C(=O)N[C@@H](CC(C)C)C(=O)N[C@@H](CC(=O)O)C(=O)N[C@@H](CCCCN)C(=O)N[C@@H](CCCCNC(=O)COCCOCCNC(=O)COCCOCCNC(=O)CC[C@H](NC(=O)CCCCCCCCCCCCCCCCCCC(=O)O)C(=O)O)C(=O)N[C@@H](Cc1c[nH]cn1)C(=O)N[C@@H](CCC(N)=O)C(=O)NC(C)(C)C(=O)N[C@@H](CC(=O)O)C(=O)N[C@@H](Cc1ccccc1)C(=O)N[C@H](C(=O)N[C@@H](CCC(=O)O)C(=O)N[C@@H](Cc1ccncc1)C(=O)N[C@@H](CC(C)C)C(=O)N[C@@H](CC(C)C)C(=O)N[C@@H](C)C(=O)N[C@@H](C)C(=O)NCC(=O)N1CCC[C@H]1C(=O)N[C@@H](CO)C(=O)N[C@@H](CO)C(=O)NCC(=O)N[C@@H](C)C(=O)N1CCC[C@H]1C(=O)N1CCC[C@H]1C(=O)N1CCC[C@H]1C(=O)N[C@@H](CO)C(N)=O)C(C)C)[C@@H](C)CC
B3: Example 79 (peptide)
peptide: Y[Aib]EGTFISDYSI[αMeL]LDKK([AEEA-AEEA-γGlu-C20 diacid])HQ[Aib]DFVE[4Pal]LLAQGPSSGAPPPS-NH2
modifications: N-terminus assumed
SMILES: CC[C@H](C)[C@H](NC(=O)[C@H](Cc1ccccc1)NC(=O)[C@@H](NC(=O)CNC(=O)[C@H](CCC(=O)O)NC(=O)C(C)(C)NC(=O)[C@@H](N)Cc1ccc(O)cc1)[C@@H](C)O)C(=O)N[C@@H](CO)C(=O)N[C@@H](CC(=O)O)C(=O)N[C@@H](Cc1ccc(O)cc1)C(=O)N[C@@H](CO)C(=O)N[C@H](C(=O)N[C@@](C)(CC(C)C)C(=O)N[C@@H](CC(C)C)C(=O)N[C@@H](CC(=O)O)C(=O)N[C@@H](CCCCN)C(=O)N[C@@H](CCCCNC(=O)COCCOCCNC(=O)COCCOCCNC(=O)CC[C@H](NC(=O)CCCCCCCCCCCCCCCCCCC(=O)O)C(=O)O)C(=O)N[C@@H](Cc1c[nH]cn1)C(=O)N[C@@H](CCC(N)=O)C(=O)NC(C)(C)C(=O)N[C@@H](CC(=O)O)C(=O)N[C@@H](Cc1ccccc1)C(=O)N[C@H](C(=O)N[C@@H](CCC(=O)O)C(=O)N[C@@H](Cc1ccncc1)C(=O)N[C@@H](CC(C)C)C(=O)N[C@@H](CC(C)C)C(=O)N[C@@H](C)C(=O)N[C@@H](CCC(N)=O)C(=O)NCC(=O)N1CCC[C@H]1C(=O)N[C@@H](CO)C(=O)N[C@@H](CO)C(=O)NCC(=O)N[C@@H](C)C(=O)N1CCC[C@H]1C(=O)N1CCC[C@H]1C(=O)N1CCC[C@H]1C(=O)N[C@@H](CO)C(N)=O)C(C)C)[C@@H](C)CC
B4: Example 73 (peptide)
peptide: Y[Aib]EGTLISDYSI[αMeL]LDKK([AEEA-AEEA-γGlu-C20 diacid])HQ[Aib]EFVEYLLEGGPSSGAPPPS-NH2
modifications: N-terminus assumed
SMILES: CC[C@H](C)[C@H](NC(=O)[C@H](CC(C)C)NC(=O)[C@@H](NC(=O)CNC(=O)[C@H](CCC(=O)O)NC(=O)C(C)(C)NC(=O)[C@@H](N)Cc1ccc(O)cc1)[C@@H](C)O)C(=O)N[C@@H](CO)C(=O)N[C@@H](CC(=O)O)C(=O)N[C@@H](Cc1ccc(O)cc1)C(=O)N[C@@H](CO)C(=O)N[C@H](C(=O)N[C@@](C)(CC(C)C)C(=O)N[C@@H](CC(C)C)C(=O)N[C@@H](CC(=O)O)C(=O)N[C@@H](CCCCN)C(=O)N[C@@H](CCCCNC(=O)COCCOCCNC(=O)COCCOCCNC(=O)CC[C@H](NC(=O)CCCCCCCCCCCCCCCCCCC(=O)O)C(=O)O)C(=O)N[C@@H](Cc1c[nH]cn1)C(=O)N[C@@H](CCC(N)=O)C(=O)NC(C)(C)C(=O)N[C@@H](CCC(=O)O)C(=O)N[C@@H](Cc1ccccc1)C(=O)N[C@H](C(=O)N[C@@H](CCC(=O)O)C(=O)N[C@@H](Cc1ccc(O)cc1)C(=O)N[C@@H](CC(C)C)C(=O)N[C@@H](CC(C)C)C(=O)N[C@@H](CCC(=O)O)C(=O)NCC(=O)NCC(=O)N1CCC[C@H]1C(=O)N[C@@H](CO)C(=O)N[C@@H](CO)C(=O)NCC(=O)N[C@@H](C)C(=O)N1CCC[C@H]1C(=O)N1CCC[C@H]1C(=O)N1CCC[C@H]1C(=O)N[C@@H](CO)C(N)=O)C(C)C)[C@@H](C)CC
B5: Example 74 (peptide)
peptide: YXEGTXISDYSIXLDKKHQXDFVEXLLEGGPSSGAPPPS
modifications: Aib2; Iva6; αMeL13; K17((2-[2-(2-Amino-ethoxy)-ethoxy]-acetyl)2-(γ-Glu)-CO-(CH2)18-CO2H); Aib20; 4-Pal25; C-terminal amide
B6: Example 77 (peptide)
peptide: B5 peptide with K16X, G29T
modifications: Aib2; Iva6; αMeL13; Orn16; K17((2-[2-(2-Amino-ethoxy)-ethoxy]-acetyl)2-(γ-Glu)-CO-(CH2)18-CO2H); Aib20; 4-Pal25; C-terminal amide
B7: Example 76 (peptide)
peptide: B5 peptide with K16X
modifications: Aib2; Iva6; αMeL13; Orn16; K17((2-[2-(2-Amino-ethoxy)-ethoxy]-acetyl)2-(γ-Glu)-CO-(CH2)18-CO2H); Aib20; 4-Pal25; C-terminal amide
B8: Example 75 (peptide)
peptide: B5 peptide with G29T
modifications: Aib2; Iva6; αMeL13; K17((2-[2-(2-Amino-ethoxy)-ethoxy]-acetyl)2-(γ-Glu)-CO-(CH2)18-CO2H); Aib20; 4-Pal25; C-terminal amide
B9: Example 72 (peptide)
peptide: Y[Aib]EGTLISDYSI[αMeL]LDKK([AEEA-AEEA-γGlu-C20 diacid])HQ[Aib]EFVEYLLETGPSSGAPPPS-NH2
modifications: N-terminus assumed
SMILES: CC[C@H](C)[C@H](NC(=O)[C@H](CC(C)C)NC(=O)[C@@H](NC(=O)CNC(=O)[C@H](CCC(=O)O)NC(=O)C(C)(C)NC(=O)[C@@H](N)Cc1ccc(O)cc1)[C@@H](C)O)C(=O)N[C@@H](CO)C(=O)N[C@@H](CC(=O)O)C(=O)N[C@@H](Cc1ccc(O)cc1)C(=O)N[C@@H](CO)C(=O)N[C@H](C(=O)N[C@@](C)(CC(C)C)C(=O)N[C@@H](CC(C)C)C(=O)N[C@@H](CC(=O)O)C(=O)N[C@@H](CCCCN)C(=O)N[C@@H](CCCCNC(=O)COCCOCCNC(=O)COCCOCCNC(=O)CC[C@H](NC(=O)CCCCCCCCCCCCCCCCCCC(=O)O)C(=O)O)C(=O)N[C@@H](Cc1c[nH]cn1)C(=O)N[C@@H](CCC(N)=O)C(=O)NC(C)(C)C(=O)N[C@@H](CCC(=O)O)C(=O)N[C@@H](Cc1ccccc1)C(=O)N[C@H](C(=O)N[C@@H](CCC(=O)O)C(=O)N[C@@H](Cc1ccc(O)cc1)C(=O)N[C@@H](CC(C)C)C(=O)N[C@@H](CC(C)C)C(=O)N[C@@H](CCC(=O)O)C(=O)N[C@H](C(=O)NCC(=O)N1CCC[C@H]1C(=O)N[C@@H](CO)C(=O)N[C@@H](CO)C(=O)NCC(=O)N[C@@H](C)C(=O)N1CCC[C@H]1C(=O)N1CCC[C@H]1C(=O)N1CCC[C@H]1C(=O)N[C@@H](CO)C(N)=O)[C@@H](C)O)C(C)C)[C@@H](C)CC

molecular target: human glucagon receptor (human, UniProt P47871 26-477); assay: cell-based or functional assay
Sequence (P47871 26-477): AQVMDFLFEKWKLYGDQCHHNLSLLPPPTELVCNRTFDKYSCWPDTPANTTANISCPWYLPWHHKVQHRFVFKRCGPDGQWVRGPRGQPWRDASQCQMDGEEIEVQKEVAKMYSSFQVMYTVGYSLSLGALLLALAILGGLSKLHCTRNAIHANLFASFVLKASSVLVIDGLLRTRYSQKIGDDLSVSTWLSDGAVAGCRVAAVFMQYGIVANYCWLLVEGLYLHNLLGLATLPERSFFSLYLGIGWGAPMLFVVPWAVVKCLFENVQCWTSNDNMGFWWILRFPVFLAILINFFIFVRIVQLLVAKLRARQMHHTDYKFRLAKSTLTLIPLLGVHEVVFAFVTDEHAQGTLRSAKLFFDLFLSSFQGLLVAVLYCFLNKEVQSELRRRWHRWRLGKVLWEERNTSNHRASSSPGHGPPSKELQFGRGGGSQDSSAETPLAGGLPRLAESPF

| Binder | hGcgR cAMP Rel EC50 |
| --- | --- |
| B1 | 581 nM |
| B2 | 3000 nM |
| B3 | > 5000 nM |
| B4 | > 5000 nM |
| B5 | 627 nM |
| B6 | 2660 nM |
| B7 | 1200 nM |
| B8 | 2170 nM |
| B9 | > 5000 nM |

molecular target: T1, human glucose-dependent insulinotropic peptide receptor (human, UniProt P48546 22-466); assay: cell-based or functional assay
T1 sequence (looked up): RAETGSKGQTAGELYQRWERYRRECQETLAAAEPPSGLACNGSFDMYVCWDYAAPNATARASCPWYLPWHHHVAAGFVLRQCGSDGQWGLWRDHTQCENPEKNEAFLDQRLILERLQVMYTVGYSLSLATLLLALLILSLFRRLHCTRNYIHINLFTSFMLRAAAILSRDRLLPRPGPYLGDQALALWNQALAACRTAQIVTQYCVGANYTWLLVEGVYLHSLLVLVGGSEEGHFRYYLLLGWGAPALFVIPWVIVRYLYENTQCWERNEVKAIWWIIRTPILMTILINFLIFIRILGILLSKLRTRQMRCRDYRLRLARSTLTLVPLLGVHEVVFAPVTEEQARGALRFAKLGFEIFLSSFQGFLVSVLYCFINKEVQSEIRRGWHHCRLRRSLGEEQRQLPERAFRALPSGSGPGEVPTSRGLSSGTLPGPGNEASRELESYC

| Binder | hGIPR cAMP Rel EC50 |
| --- | --- |
| B1 | 0.0721 nM |
| B2 | 0.0125 nM |
| B3 | 0.0316 nM |
| B4 | 0.0151 nM |
| B5 | 0.0167 nM |
| B6 | 0.0265 nM |
| B7 | 0.0154 nM |
| B8 | 0.0182 nM |
| B9 | 0.0182 nM |

molecular target: human GLP-1 receptor (human, UniProt P43220 24-463); assay: cell-based or functional assay

| Binder | hGLP1R cAMP Rel EC50 |
| --- | --- |
| B1 | > 5000 nM |
| B2 | > 5000 nM |
| B3 | > 5000 nM |
| B4 | > 5000 nM |
| B5 | > 5000 nM |
| B6 | > 5000 nM |
| B7 | > 5000 nM |
| B8 | > 5000 nM |
| B9 | > 5000 nM |

From patent US20210032299A1 (Eli Lilly, published 2021)
